We go through 5 sequences from the Immune Epitope Database (IEDB).

What is called Kd is the equilibrium constant for the complex coming apart.

The target of assay [1] is HLA-B*40:01. The assay is described as follows: IEDB peptide-MHC binding, purified MHC/competitive/radioactivity; filed as Kd, often an IC50 or EC50 that approximates it; ≥ and ≤ were set here for values at or beyond the usual limits of such assays. Particulars: source organism: Hepacivirus hominis.
Assay [2] has as its target HLA-A*02:06. The assay is described as above. The conditions noted are these: source organism: Hepacivirus hominis.
The target in assay [3] is HLA-B*35:01. The description is as above. Particulars: source organism: Hepacivirus hominis.
Assay [4] has as its target HLA-A*31:01. The assay is described as above. Particulars: source organism: Hepacivirus hominis.
Assay [5] deals with HLA-B*54:01. Described as above. The conditions noted are these: source organism: Hepacivirus hominis.
Assay [6] addresses HLA-A*02:01. The description is as above. Particulars: source organism: Hepacivirus hominis.
The target in assay [7] is HLA-A*68:02. Described as above. Particulars: source organism: Hepacivirus hominis.
For assay [8], the target named is HLA-B*44:03. The assay is described as above. Particulars: source organism: Hepacivirus hominis.
The target of assay [9] is HLA-A*03:01. Described as above. The conditions noted are these: source organism: Hepacivirus hominis.
The target of assay [10] is HLA-B*53:01. The assay is described as above. Particulars: source organism: Hepacivirus hominis.
In assay [11] the target is HLA-A*01:01. The description is as above. Particulars: source organism: Hepacivirus hominis.
The target of assay [12] is HLA-B*40:02. The assay is described as above. Particulars: source organism: Hepacivirus hominis.
The target of assay [13] is HLA-A*02:03. The assay is described as above. The conditions noted are these: source organism: Hepacivirus hominis.
Assay [14] addresses HLA-A*33:01. Described as above. The conditions noted are these: source organism: Hepacivirus hominis.
Assay [15] addresses HLA-B*18:01. The assay is described as above. Particulars: source organism: Hepacivirus hominis.
The target in assay [16] is HLA-A*11:01. The assay is described as above. The conditions noted are these: source organism: Hepacivirus hominis.
The target in assay [17] is HLA-A*68:01. The description is as above. Particulars: source organism: Hepacivirus hominis.
Assay [18] has as its target HLA-A*02:02. The description is as above. Particulars: source organism: Hepacivirus hominis.
The target of assay [19] is HLA-B*08:01. The assay is described as above. The conditions noted are these: source organism: Hepacivirus hominis.
Assay [20] addresses HLA-B*44:02. Described as above. Particulars: source organism: Hepacivirus hominis.
Assay [21] deals with HLA-B*51:01. The assay is described as above. Particulars: source organism: Hepacivirus hominis.
The target in assay [22] is HLA-B*07:02. The assay is described as above. Particulars: source organism: Hepacivirus hominis.
For assay [23], the target named is HLA-A*24:02. The assay is described as follows: IEDB peptide-MHC binding, purified MHC/direct/fluorescence; filed as Kd, often an IC50 or EC50 that approximates it; ≥ and ≤ were set here for values at or beyond the usual limits of such assays.
The target in assay [24] is HLA-B*27:05. The description is as above.
Assay [25] concerns the target HLA-B*40:01. The description is as above.
The target of assay [26] is HLA-A*31:01. The assay is described as above.
Assay [27] has as its target HLA-B*58:01. The description is as above.
The target of assay [28] is HLA-A*02:01. The description is as above.
Assay [29] has as its target HLA-A*69:01. Described as above.
Assay [30] concerns the target HLA-A*03:01. The assay is described as above.
Assay [31] concerns the target HLA-A*01:01. The description is as above.
Assay [32] has as its target HLA-A*26:01. The assay is described as above.
The target in assay [33] is HLA-A*11:01. The description is as above.
Assay [34] addresses HLA-B*15:01. The assay is described as above.
The target in assay [35] is HLA-B*44:02. The description is as above. The conditions noted are these: source organism: Giardia lamblia ATCC 50803.
In assay [36] the target is HLA-B*07:02. The assay is described as above.
The target of assay [37] is HLA-B*08:02. Described as above.
Assay [38] deals with HLA-B*08:01. The description is as above.
Assay [39] addresses HLA-B*18:01. The description is as above. Particulars: source organism: Giardia lamblia ATCC 50803.
The target of assay [40] is HLA-B*46:01. Described as above. Particulars: source organism: Giardia lamblia ATCC 50803.
Where [41] appears, read: source organism: Giardia lamblia ATCC 50803.
The mark [42] stands for this setting: source organism: Influenza A virus (A/camel/Mongolia/1982(H1N1)).
The mark [43] stands for this setting: source organism: Influenza A virus (A/Puerto Rico/8/34/Mount Sinai(H1N1)).
Where [44] appears, read: source organism: Influenza A virus (A/chicken/Hunan/fg/2004(H5N1)).
Where [45] appears, read: source organism: Influenza B virus (B/Chiba/447/98).

As to RPALVFDITK, the Kd was at least 69.6 µM in assay [1]; 12.3 µM in assay [2]; at least 27.4 µM in assay [3]; at least 70 µM in assay [4]; 11.2 µM in assay [5]; at least 37.4 µM in assay [6]. For the same sequence, the dissociation constant Kd was at least 69.8 µM in assay [7]; 15.6 µM in assay [8]; at least 29.7 µM in assay [9]; 18.9 µM in assay [10]; at least 51.3 µM in assay [11]; at least 70.8 µM in [12]. For the same sequence, the Kd was at least 70.4 µM in [13]; at least 70 µM in [14]; at least 70.5 µM in [15]; 0.796 µM in assay [16]; 0.133 µM in assay [17]; at least 70 µM in assay [18]. Besides, the Kd was at least 49.8 µM in assay [19], at least 70.2 µM in assay [20], at least 69.6 µM in assay [21] and 0.222 µM in assay [22].

Regarding SVFHEHIFK, the dissociation constant (Kd) in assay [23] (setting [41]) is at least 20 µM; in assay [24] (setting [41]), at least 20 µM; in [25] (setting [41]), at least 20 µM; in assay [26] (setting [41]), 0.134 µM; in [27] (setting [41]), at least 20 µM; in assay [28] (setting [41]), at least 20 µM. Besides, the dissociation constant Kd in assay [29] (setting [41]) was at least 20 µM; in assay [30] (setting [41]), 0.154 µM; in assay [31] (setting [41]), at least 20 µM; in [32] (setting [41]) it was at least 20 µM; in assay [33] (setting [41]), 0.0092 µM; in assay [34] (setting [41]) it was at least 20 µM. For the same sequence, the dissociation constant Kd in [35] and in assay [36] (setting [41]) was at least 20 µM each time.

As for EKFFPSSSY, the Kd in assay [23] (setting [42]), in [24] (setting [42]), in [26] (setting [42]), in assay [27] (setting [42]), in assay [28] (setting [42]) and in assay [29] (setting [42]) was at least 20 µM each time. Moreover, the Kd was at least 20 µM in assay [30] (setting [42]); at least 20 µM in assay [31] (setting [42]); at least 20 µM in [37] (source organism: Influenza A virus H3N2); at least 20 µM in assay [33] (setting [42]); at least 20 µM in assay [38] (setting [42]); 1.12 µM in assay [34] (setting [43]). The Kd in [36] (setting [42]) is at least 20 µM.

For the sequence IVKYKQYLK, the Kd in assay [23] (setting [41]), in assay [24] (setting [41]), in assay [25] (setting [41]), in assay [27] (setting [41]), in assay [28] (setting [41]) and in assay [29] (setting [41]) was at least 20 µM in each case. Besides, the Kd in [30] (setting [41]) was 0.0815 µM; in assay [31] (setting [41]) it was at least 20 µM; in assay [37] (setting [41]), at least 20 µM; in assay [39] it was at least 20 µM; in [38] (setting [41]) it was at least 20 µM; in assay [34] (setting [41]), at least 20 µM. Further, the Kd in [35], in assay [36] (setting [41]) and in assay [40] was at least 20 µM each time.

For YSHGTGTGY, the Kd in assay [23] (setting [44]) is at least 20 µM; in assay [24] (setting [44]) it was at least 20 µM; in [25] (setting [44]), at least 20 µM; in assay [26] (setting [44]), at least 20 µM; in [27] (setting [44]), 0.905 µM; in [28] (setting [44]), at least 20 µM. Further, the Kd in assay [29] (setting [44]) was at least 20 µM; in [30] (setting [44]), at least 20 µM; in assay [32] (setting [45]), 0.02 µM; in [37] (setting [45]), at least 20 µM; in assay [33] (setting [44]), at least 20 µM; in [38] (setting [44]) it was at least 20 µM. Also, the Kd in assay [34] (setting [43]) was 0.099 µM; in assay [36] (setting [44]) it was at least 20 µM.
